Assay [1] concerns the target T1, human ROR1 on cell lines (human, UniProt Q01973 30-937).
T1 construct: Jeko-1 'bearing the ROR1 antigen'); also called Receptor tyrosine kinase-like orphan receptor 1
Briefly: quantitative flow cytometry on HCCLM3 cells (cell only 1420.81). For orientation: In flow cytometry, cells or beads pass a laser one at a time.

Assay [2] concerns the target T1, human ROR1 on cell lines. The experiment in a line: quantitative flow cytometry on MKN-45 cells (cell only 451).
For assay [3], the target named is T1, human ROR1 on cell lines. The experiment in a line: quantitative flow cytometry on Daudi cells (cell only 229).
In assay [4] the target is T1, human ROR1 on cell lines. Briefly: quantitative flow cytometry on MHCC97H cells (cell only 781).
For assay [5], the target named is T1, human ROR1 on cell lines. Briefly: quantitative flow cytometry on Daudi cells (cell only 328.77).
For assay [6], the target named is T1, human ROR1 on cell lines. The experiment in a line: quantitative flow cytometry on Jeko-1 cells (cell only 340.33).
For assay [7], the target named is T1, human ROR1 on cell lines. Briefly: quantitative flow cytometry on MKN-45 cells (cell only 641.4).
For assay [8], the target named is T1, human ROR1 on cell lines. The experiment in a line: quantitative flow cytometry on NCI-H226 cells (cell only 1536.32).
Assay [9] deals with T1, human ROR1 on cell lines. The experiment in a line: quantitative flow cytometry on MHCC97H cells (cell only 1099.77).
Assay [10] has as its target T1, human ROR1 on cell lines. The experiment in a line: quantitative flow cytometry on KATO-III cells (cell only 764).
Assay [11] addresses T1, human ROR1 on cell lines. The experiment in a line: quantitative flow cytometry on NCI-H2228 cells (cell only 894.37).
Assay [12] addresses T1, human ROR1 on cell lines. Briefly: quantitative flow cytometry on Jeko-1 cells (cell only 237).
The target of assay [13] is T1, human ROR1 on cell lines. The experiment in a line: quantitative flow cytometry on MDA-MD-231 cells (cell only 668).
Assay [14] addresses T1, human ROR1 on cell lines. The experiment in a line: quantitative flow cytometry on KATO-III cells (cell only 1075.85).
Assay [15] addresses T1, human ROR1 on cell lines. The experiment in a line: quantitative flow cytometry on Namalwa cells (cell only 319.84).
The target of assay [16] is T1, human ROR1 on cell lines. Briefly: quantitative flow cytometry on NCI-H226 cells (cell only 1097).
The target of assay [17] is T1, human ROR1 on cell lines. The experiment in a line: quantitative flow cytometry on NCI-H2228 cells (cell only 633).
Assay [18] addresses T1, human ROR1 on cell lines. The experiment in a line: quantitative flow cytometry on HCCLM3 cells (cell only 1014).
Assay [19] deals with T1, human ROR1 on cell lines. The experiment in a line: quantitative flow cytometry on MDA-MD-231 cells (cell only 942.92).
For assay [20], the target named is T1, human ROR1 on cell lines. The experiment in a line: quantitative flow cytometry on Namalwa cells (cell only 222).
For assay [21], the target named is T1, human ROR1 on cell lines. Briefly: flow cytometry on Jeko-1 cells, FITC secondary, surface signal left after 37 C, 2.5 hr T2 (secondary only 215). As to the method: (§1) The following JeKo-1 internalization assay was used. [0179] 1. Harvest Jeko-1 cells (suspension): count and spin down required cell number for experiment in 15 ml falcon tube. Re-suspended in PBS+3% FBS in bulk and aliquoted 100 μl (500,000 cells) per tube. [0180] 2. 2 μg each ADC per tube were added from bulk dilution, incubated 4° C. (on ice) for 1 hour. [0181] 3. 3×wash in 3 ml PBS+3% FBS. Centrifuge set to 1200 RPM for 3 min spin. Carefully decanted and discarded supernatant at each step. Pulse vortexed cell pellets. Left equal volumes in tubes after final wash. [0182] 4. Placed one set of tubes at 37° C. for each Ab tested, included secondary only control set for comparison. T₀=4° C., T₁=37° C. 30 min, T₁=37+ C., […] [0183] 5. After incubation times were complete, removed tubes from incubator and keep on ice until all samples were collected. [0184] 6. Added FITC labelled secondary, incubate on ice 45 min. [0185] 7. 3×wash in 3 ml PBS+3% FBS. Centrifuge set to 1500 RPM for 5 min spin. Carefully decanted and discarded supernatant at each step. Pulse vortexed cell pellets. Left equal volumes in tubes after final wash. [0186] 8. Collected data on instrument

Assay [22] concerns the target T1, human ROR1 on cell lines. The experiment in a line: flow cytometry on Jeko-1 cells, FITC secondary, surface signal left after 37 C, 30 min T1 (secondary only 216). As to the method: as §1
Assay [23] deals with T1, human ROR1 on cell lines. The experiment in a line: flow cytometry on Jeko-1 cells, FITC secondary, 4 C (on ice) T0 (secondary only 242). As to the method:
as §1

Assay [24] concerns the target T2, ROR1 (target of the KD values in Table 7) (Homo sapiens (Human), UniProt Q01973 30-403, limits assumed). Briefly: method not stated (Table 7); upper end of the printed range 100-400 pM.
Assay [25] has as its target T2, ROR1 (target of the KD values in Table …). The experiment in a line: method not stated (Table 7); lower end of the printed range 100-400 pM.

A value given as a limit tells only on which side of the number the result lay.

T1 sequence (Q01973 30-937 limits assumed): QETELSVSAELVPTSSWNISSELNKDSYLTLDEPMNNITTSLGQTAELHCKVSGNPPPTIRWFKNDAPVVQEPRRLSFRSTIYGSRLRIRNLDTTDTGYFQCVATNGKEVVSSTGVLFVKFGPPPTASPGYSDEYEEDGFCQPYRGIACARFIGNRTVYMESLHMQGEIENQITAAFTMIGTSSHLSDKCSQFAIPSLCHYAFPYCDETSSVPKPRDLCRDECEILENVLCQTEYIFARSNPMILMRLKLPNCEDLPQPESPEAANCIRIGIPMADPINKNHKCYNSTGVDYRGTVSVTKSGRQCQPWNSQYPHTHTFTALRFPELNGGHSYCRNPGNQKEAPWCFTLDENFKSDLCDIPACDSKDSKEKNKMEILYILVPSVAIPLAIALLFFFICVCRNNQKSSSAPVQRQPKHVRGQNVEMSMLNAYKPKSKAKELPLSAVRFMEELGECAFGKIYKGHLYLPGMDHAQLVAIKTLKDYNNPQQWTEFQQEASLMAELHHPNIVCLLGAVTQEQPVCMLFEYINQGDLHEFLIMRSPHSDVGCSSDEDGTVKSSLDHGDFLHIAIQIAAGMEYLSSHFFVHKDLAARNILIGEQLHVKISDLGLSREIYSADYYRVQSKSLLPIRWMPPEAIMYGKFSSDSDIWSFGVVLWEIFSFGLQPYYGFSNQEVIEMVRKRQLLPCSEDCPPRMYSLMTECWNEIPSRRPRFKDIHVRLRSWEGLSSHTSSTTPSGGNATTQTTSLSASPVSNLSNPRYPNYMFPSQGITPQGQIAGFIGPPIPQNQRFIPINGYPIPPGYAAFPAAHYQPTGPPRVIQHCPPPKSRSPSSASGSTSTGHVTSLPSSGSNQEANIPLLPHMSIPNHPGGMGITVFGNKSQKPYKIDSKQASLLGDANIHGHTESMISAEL
T2 sequence (Q01973 30-403 limits assumed): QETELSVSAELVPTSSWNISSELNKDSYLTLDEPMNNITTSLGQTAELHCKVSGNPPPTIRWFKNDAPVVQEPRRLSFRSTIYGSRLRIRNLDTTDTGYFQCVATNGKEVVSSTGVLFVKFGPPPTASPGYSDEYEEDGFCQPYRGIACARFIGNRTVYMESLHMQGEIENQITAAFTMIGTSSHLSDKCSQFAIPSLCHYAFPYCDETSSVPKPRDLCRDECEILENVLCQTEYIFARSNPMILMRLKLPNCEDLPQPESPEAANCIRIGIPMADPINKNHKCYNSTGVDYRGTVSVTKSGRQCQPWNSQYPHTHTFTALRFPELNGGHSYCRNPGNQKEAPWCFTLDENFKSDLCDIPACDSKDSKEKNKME

Turning to mIgG (antibody), the MFI (Geom. mean of FL2) amounted to 1430 with human ROR1 on cell lines [1]; 327 with human ROR1 on cell lines [5]; 338 in the assay with human ROR1 on cell lines [6]; 659 with human ROR1 on cell lines [7]; 1400 with human ROR1 on cell lines [8]; 1070 in the assay with human ROR1 on cell lines [9]. Moreover, the MFI (Geom. mean of FL2) with human ROR1 on cell lines [11] was determined as 849; with human ROR1 on cell lines [14], 1070; in the assay with human ROR1 on cell lines [15], 294; with human ROR1 on cell lines [19], 931. Besides, the Ab binding capacity/cell turned out to be 464 per cell in the assay with human ROR1 on cell lines [2]; 227 per cell with human ROR1 on cell lines [3]; 757 per cell in the assay with human ROR1 on cell lines [4]; 760 per cell in the assay with human ROR1 on cell lines [10]; 235 per cell in the assay with human ROR1 on cell lines [12]; 660 per cell with human ROR1 on cell lines [13]. The Ab binding capacity/cell worked out at 996 per cell with human ROR1 on cell lines [16], 600 per cell with human ROR1 on cell lines [17], 1024 per cell in the assay with human ROR1 on cell lines [18] and 204 per cell with human ROR1 on cell lines [20].

B1: 2A2-untagged (antibody, V domains shown)
VH: QVQLQQSGAELVRPGASVTLSCKASGYTFSDYEMHWVIQTPVHGLEWIGAIDPETGGTAYNQKFKGKAILTADKSSSTAYMELRSLTSEDSAVYYCTGYYDYDSFTYWGQGTLVTVSA
VL: DIVMTQSQKIMSTTVGDRVSITCKASQNVDAAVAWYQQKPGQSPKLLIYSASNRYTGVPDRFTGSGSGTDFTLTISNMQSEDLADYFCQQYDIYPYTFGGGTKLEIK
notes: also called untagged 2A2
For B1, the MFI in the assay with human ROR1 on cell lines [21] was determined as 882; in the assay with human ROR1 on cell lines [22] it was 1070; in the assay with human ROR1 on cell lines [23], 1070.

B2: Mouse 2A2 Antibody (antibody, mouse IgG1, kappa, V domains shown)
VH: QVQLQQSGAELVRPGASVTLSCKASGYTFSDYEMHWVIQTPVHGLEWIGAIDPETGGTAYNQKFKGKAILTADKSSSTAYMELRSLTSEDSAVYYCTGYYDYDSFTYWGQGTLVTVSA
VL: DIVMTQSQKIMSTTVGDRVSITCKASQNVDAAVAWYQQKPGQSPKLLIYSASNRYTGVPDRFTGSGSGTDFTLTISNMQSEDLADYFCQQYDIYPYTFGGGTKLEIKR
notes: also called m2A2; 2A2 anti-ROR1 antibodies
In the case of B2, the equilibrium dissociation constant (Kd) is at most 400 pM in assay [24] and at least 100 pM in [25].

B3: 2A2-C-Terminal tag (antibody, V domains shown)
VH: QVQLQQSGAELVRPGASVTLSCKASGYTFSDYEMHWVIQTPVHGLEWIGAIDPETGGTAYNQKFKGKAILTADKSSSTAYMELRSLTSEDSAVYYCTGYYDYDSFTYWGQGTLVTVSA
VL: DIVMTQSQKIMSTTVGDRVSITCKASQNVDAAVAWYQQKPGQSPKLLIYSASNRYTGVPDRFTGSGSGTDFTLTISNMQSEDLADYFCQQYDIYPYTFGGGTKLEIK
modifications: C-terminal tag on the antibody (sequence not given)
notes: The protocol speaks of 'each ADC', so a payload may be attached; none is named; also called CT-tagged 2A2; C-terminal (CT)-tagged 2A2
For B3, the MFI amounted to 750 with human ROR1 on cell lines [21], 959 with human ROR1 on cell lines [22] and 990 in the assay with human ROR1 on cell lines [23].

B4: 2A2-CH1/C-Terminal double tag (antibody, V domains shown)
VH: QVQLQQSGAELVRPGASVTLSCKASGYTFSDYEMHWVIQTPVHGLEWIGAIDPETGGTAYNQKFKGKAILTADKSSSTAYMELRSLTSEDSAVYYCTGYYDYDSFTYWGQGTLVTVSA
VL: DIVMTQSQKIMSTTVGDRVSITCKASQNVDAAVAWYQQKPGQSPKLLIYSASNRYTGVPDRFTGSGSGTDFTLTISNMQSEDLADYFCQQYDIYPYTFGGGTKLEIK
modifications: tags in CH1 and at the C-terminus (sequences and positions not given)
notes: The protocol speaks of 'each ADC', so a payload may be attached; none is named; also called CH1/CT double-tagged 2A2
On to B4, for which the MFI with human ROR1 on cell lines [21] amounted to 658; in the assay with human ROR1 on cell lines [22], 869; with human ROR1 on cell lines [23], 1100.

B5: 2A2-CH1 tag (antibody, V domains shown)
VH: QVQLQQSGAELVRPGASVTLSCKASGYTFSDYEMHWVIQTPVHGLEWIGAIDPETGGTAYNQKFKGKAILTADKSSSTAYMELRSLTSEDSAVYYCTGYYDYDSFTYWGQGTLVTVSA
VL: DIVMTQSQKIMSTTVGDRVSITCKASQNVDAAVAWYQQKPGQSPKLLIYSASNRYTGVPDRFTGSGSGTDFTLTISNMQSEDLADYFCQQYDIYPYTFGGGTKLEIK
modifications: tag in CH1 (sequence and position not given)
notes: The protocol speaks of 'each ADC', so a payload may be attached; none is named; also called CH1-tagged 2A2
With B5, the MFI in the assay with human ROR1 on cell lines [21] is 786; in the assay with human ROR1 on cell lines [22], 1050; with human ROR1 on cell lines [23] it was 1100.

What is called Kd is the concentration at which binding is half-saturated. Lower therefore signals tighter binding.

Values taken from patent US20200338210A1 (ARDEAGEN, published 2020).
